In the supplement of paper PMC9112550, “Optimization of the antimicrobial peptide Bac7 by deep mutational scanning” (BMC Biology, 2022):

Tested on: Escherichia coli TOP10
Assay: shrunken log2 fold change of peptide-encoding DNA abundance (4.5 h post-induction vs induction); higher = less antimicrobial activity (less host growth inhibition)
Settings: time post-induction: 4.5 h; library: site-saturation at positions 5, 18, 19, 20
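Further: peptides expressed intracellularly from a pBAD plasmid library in pooled LB shake-flask culture, induced with 0.3% L-arabinose, DNA abundance read by NGS, three biological replicates, DESeq2 with apeglm shrinkage.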

**Q.** RRIRCRPPRLPRPRPRPMRYPRP was tested. Which “shrunken log2 fold change” value did it give?
**A.** 0.0209

**Q.** RRIRGRPPRLPRPRPRPGMCPRP was tested. Which “shrunken log2 fold change” value did it give?
**A.** 0.489

**Q.** With RRIRERPPRLPRPRPRPYKCPRP as the sequence, how does the “shrunken log2 fold change” value read?
**A.** -0.122

**Q.** Which “shrunken log2 fold change” value does the source give for RRIRNRPPRLPRPRPRPQWAPRP here?
**A.** -0.188

**Q.** Which “shrunken log2 fold change” value does the source give for RRIRWRPPRLPRPRPRPCYVPRP here?
**A.** -0.127

**Q.** Which “shrunken log2 fold change” value does the source give for RRIRHRPPRLPRPRPRPDYWPRP here?
**A.** -0.187

**Q.** Which “shrunken log2 fold change” value does the source give for RRIRQRPPRLPRPRPRPHPKPRP here?
**A.** -0.0646

**Q.** How did the “shrunken log2 fold change” value turn out when RRIRIRPPRLPRPRPRPWIQPRP was run?
**A.** -0.318

**Q.** Which “shrunken log2 fold change” value does the source give for RRIRGRPPRLPRPRPRPFLRPRP here?
**A.** -0.0587

**Q.** How did the “shrunken log2 fold change” value turn out when RRIRVRPPRLPRPRPRPRHIPRP was run?
**A.** -0.508

**Q.** For RRIRFRPPRLPRPRPRPKYAPRP, which “shrunken log2 fold change” value is on record?
**A.** -0.145

**Q.** With RRIRWRPPRLPRPRPRPDYFPRP as the sequence, how does the “shrunken log2 fold change” value read?
**A.** -0.0991

**Q.** With RRIRVRPPRLPRPRPRPICPPRP as the sequence, how does the “shrunken log2 fold change” value read?
**A.** -0.0804

**Q.** With RRIRIRPPRLPRPRPRPGYAPRP as the sequence, how does the “shrunken log2 fold change” value read?
**A.** -0.192

**Q.** Which “shrunken log2 fold change” value does the source give for RRIRWRPPRLPRPRPRPQTDPRP here?
**A.** 0.236

**Q.** How did the “shrunken log2 fold change” value turn out when RRIRHRPPRLPRPRPRPFQFPRP was run?
**A.** 0.0952

**Q.** For RRIRQRPPRLPRPRPRPCAVPRP, which “shrunken log2 fold change” value is on record?
**A.** 0.0208

**Q.** With RRIRARPPRLPRPRPRPDEYPRP as the sequence, how does the “shrunken log2 fold change” value read?
**A.** -0.0116

**Q.** How did the “shrunken log2 fold change” value turn out when RRIRQRPPRLPRPRPRPYVCPRP was run?
**A.** -0.0671

**Q.** With RRIRTRPPRLPRPRPRPQHCPRP as the sequence, how does the “shrunken log2 fold change” value read?
**A.** -0.0947

**Q.** For RRIRMRPPRLPRPRPRPETKPRP, which “shrunken log2 fold change” value is on record?
**A.** 0.253

**Q.** For RRIRWRPPRLPRPRPRPATSPRP, which “shrunken log2 fold change” value is on record?
**A.** 0.385

**Q.** With RRIRVRPPRLPRPRPRPLHAPRP as the sequence, how does the “shrunken log2 fold change” value read?
**A.** 0.473

**Q.** How did the “shrunken log2 fold change” value turn out when RRIRSRPPRLPRPRPRPFSSPRP was run?
**A.** -0.113

**Q.** For RRIRKRPPRLPRPRPRPASTPRP, which “shrunken log2 fold change” value is on record?
**A.** 0.53

**Q.** For RRIRTRPPRLPRPRPRPYPRPRP, which “shrunken log2 fold change” value is on record?
**A.** -0.0911

**Q.** For RRIRQRPPRLPRPRPRPAVIPRP, which “shrunken log2 fold change” value is on record?
**A.** 0.135

**Q.** With RRIRDRPPRLPRPRPRPSGTPRP as the sequence, how does the “shrunken log2 fold change” value read?
**A.** -0.199

**Q.** How did the “shrunken log2 fold change” value turn out when RRIRTRPPRLPRPRPRPSNPPRP was run?
**A.** -0.663

**Q.** How did the “shrunken log2 fold change” value turn out when RRIRTRPPRLPRPRPRPQPNPRP was run?
**A.** 0.0183

**Q.** Which “shrunken log2 fold change” value does the source give for RRIRQRPPRLPRPRPRPHAVPRP here?
**A.** -0.0835

**Q.** With RRIRWRPPRLPRPRPRPHTWPRP as the sequence, how does the “shrunken log2 fold change” value read?
**A.** -0.134

**Q.** How did the “shrunken log2 fold change” value turn out when RRIRYRPPRLPRPRPRPMVEPRP was run?
**A.** -0.201

**Q.** With RRIRWRPPRLPRPRPRPHHNPRP as the sequence, how does the “shrunken log2 fold change” value read?
**A.** -0.478

**Q.** With RRIRFRPPRLPRPRPRPWMTPRP as the sequence, how does the “shrunken log2 fold change” value read?
**A.** 0.0687

**Q.** For RRIRFRPPRLPRPRPRPNCDPRP, which “shrunken log2 fold change” value is on record?
**A.** -0.144

**Q.** How did the “shrunken log2 fold change” value turn out when RRIRVRPPRLPRPRPRPEGVPRP was run?
**A.** 0.907

**Q.** Which “shrunken log2 fold change” value does the source give for RRIRWRPPRLPRPRPRPTQKPRP here?
**A.** 0.482

**Q.** With RRIRDRPPRLPRPRPRPVSFPRP as the sequence, how does the “shrunken log2 fold change” value read?
**A.** -0.191

**Q.** RRIRLRPPRLPRPRPRPVMWPRP was tested. Which “shrunken log2 fold change” value did it give?
**A.** 0.283

**Q.** RRIRVRPPRLPRPRPRPCTYPRP was tested. Which “shrunken log2 fold change” value did it give?
**A.** -0.0569

**Q.** For RRIRFRPPRLPRPRPRPNFNPRP, which “shrunken log2 fold change” value is on record?
**A.** -0.554

**Q.** RRIRFRPPRLPRPRPRPDYYPRP was tested. Which “shrunken log2 fold change” value did it give?
**A.** -1.21

**Q.** RRIRGRPPRLPRPRPRPPKFPRP was tested. Which “shrunken log2 fold change” value did it give?
**A.** 0.0991

**Q.** RRIRGRPPRLPRPRPRPNTEPRP was tested. Which “shrunken log2 fold change” value did it give?
**A.** 0.299

**Q.** With RRIRPRPPRLPRPRPRPSQQPRP as the sequence, how does the “shrunken log2 fold change” value read?
**A.** 0.0138

**Q.** RRIRVRPPRLPRPRPRPGNAPRP was tested. Which “shrunken log2 fold change” value did it give?
**A.** 0.133

**Q.** Which “shrunken log2 fold change” value does the source give for RRIRARPPRLPRPRPRPIENPRP here?
**A.** 0.203

**Q.** With RRIRQRPPRLPRPRPRPFENPRP as the sequence, how does the “shrunken log2 fold change” value read?
**A.** -0.00804

**Q.** Which “shrunken log2 fold change” value does the source give for RRIRDRPPRLPRPRPRPIENPRP here?
**A.** -0.144

**Q.** With RRIRMRPPRLPRPRPRPRVRPRP as the sequence, how does the “shrunken log2 fold change” value read?
**A.** 0.921

**Q.** How did the “shrunken log2 fold change” value turn out when RRIRERPPRLPRPRPRPMTMPRP was run?
**A.** -0.136

**Q.** Which “shrunken log2 fold change” value does the source give for RRIRGRPPRLPRPRPRPHDCPRP here?
**A.** 0.0253

**Q.** RRIRWRPPRLPRPRPRPKYVPRP was tested. Which “shrunken log2 fold change” value did it give?
**A.** -0.0314

**Q.** RRIRYRPPRLPRPRPRPEFAPRP was tested. Which “shrunken log2 fold change” value did it give?
**A.** -0.167

**Q.** Which “shrunken log2 fold change” value does the source give for RRIRDRPPRLPRPRPRPVLSPRP here?
**A.** -0.0284

**Q.** For RRIRQRPPRLPRPRPRPKLEPRP, which “shrunken log2 fold change” value is on record?
**A.** 0.563

**Q.** With RRIRERPPRLPRPRPRPYPIPRP as the sequence, how does the “shrunken log2 fold change” value read?
**A.** 0.113

**Q.** Which “shrunken log2 fold change” value does the source give for RRIRRRPPRLPRPRPRPEDVPRP here?
**A.** -0.0417

**Q.** For RRIRVRPPRLPRPRPRPHTQPRP, which “shrunken log2 fold change” value is on record?
**A.** 0.00176

**Q.** RRIRVRPPRLPRPRPRPGQPPRP was tested. Which “shrunken log2 fold change” value did it give?
**A.** 0.0218

**Q.** RRIRWRPPRLPRPRPRPRAVPRP was tested. Which “shrunken log2 fold change” value did it give?
**A.** 0.521

**Q.** For RRIRSRPPRLPRPRPRPQWIPRP, which “shrunken log2 fold change” value is on record?
**A.** -0.425

**Q.** RRIRQRPPRLPRPRPRPITFPRP was tested. Which “shrunken log2 fold change” value did it give?
**A.** -0.11

**Q.** RRIRVRPPRLPRPRPRPLKAPRP was tested. Which “shrunken log2 fold change” value did it give?
**A.** 0.157

**Q.** RRIRIRPPRLPRPRPRPLDMPRP was tested. Which “shrunken log2 fold change” value did it give?
**A.** -0.285

**Q.** How did the “shrunken log2 fold change” value turn out when RRIRERPPRLPRPRPRPWTVPRP was run?
**A.** 0.0377

**Q.** RRIRLRPPRLPRPRPRPKHLPRP was tested. Which “shrunken log2 fold change” value did it give?
**A.** -0.364

**Q.** How did the “shrunken log2 fold change” value turn out when RRIRPRPPRLPRPRPRPGGAPRP was run?
**A.** 0.47

**Q.** For RRIRNRPPRLPRPRPRPNWNPRP, which “shrunken log2 fold change” value is on record?
**A.** -0.691

**Q.** With RRIRQRPPRLPRPRPRPMYDPRP as the sequence, how does the “shrunken log2 fold change” value read?
**A.** -0.0385

**Q.** How did the “shrunken log2 fold change” value turn out when RRIRDRPPRLPRPRPRPISSPRP was run?
**A.** 0.00884

**Q.** RRIRIRPPRLPRPRPRPDADPRP was tested. Which “shrunken log2 fold change” value did it give?
**A.** 0.194

**Q.** For RRIRFRPPRLPRPRPRPRAHPRP, which “shrunken log2 fold change” value is on record?
**A.** 0.00718

**Q.** Which “shrunken log2 fold change” value does the source give for RRIRYRPPRLPRPRPRPQGWPRP here?
**A.** 0.031
